Experimental data from article PMC8932546 (The Journal of Experimental Medicine, 2022).

B1: BG18 IgG (antibody, V domains shown)
VH: QVQLRESGPGLVKPSETLSLSCTVSQDSRPSDHSWTWVRQSPGKALEWIGDIHYNGATTYNPSLRSRVRIELDQSIPRFSLKMTSMTAADTGMYYCARNAIRIYGVVALGEWFHYGMDVWGQGTAVTVSS
VL: SSELTQPPSVSVSPGQTARITCSGAPLTSRFTYWYRQKPGQAPVLIISRSSQRSSGWSGRFSASWSGTTVTLTIRGVQADDEADYYCQSSDTSDSYKMFGGGTKLTVL
B2: 7-269 expressed as recombinant IgG (antibody, V domains shown)
VH: QMQLVESGGGVVQPGRSLRLSCAASRFDFNRFGMHWVRQAPGKGLEWVAYMSYDGGDRYYADSVKGRFTISRDNSKSTLHLQMDSLRPEDTAVYYCAKDDILGDCSTSHCYWGYYYQGMDVWGHGTTVTVSS
VL: EIVMTQSPDTLSVSPGERVTLSCRASQSVGSNLVWYQQKPGQSTRVLIYGASTRAATVPARFSGGGSGTEFTLTISSVQSEDFAVYYCYHYNNWPRGSFGQGTKLEIK
B3: 10-1074 IgG (antibody, V domains shown)
VH: QVQLQESGPGLVKPSETLSVTCSVSGDSMNNYYWTWIRQSPGKGLEWIGYISDRESATYNPSLNSRVVISRDTSKNQLSLKLNSVTPADTAVYYCATARRGQRIYGVVSFGEFFYYYSMDVWGKGTTVTVSS
VL: LSVALGETARISCGRQALGSRAVQWYQHRPGQAPILLIYNNQDRPSGIPERFSGTPDINFGTRATLTISGVEAGDEADYYCHMWDSRSGFSWSFGGATRLTVL

Biological target: YU2 gp120 (HIV-1 clade B, isolate YU2, UniProt P35961)
Assay: ELISA

Chain of YU2 gp120 (P35961 whole entry, looked up): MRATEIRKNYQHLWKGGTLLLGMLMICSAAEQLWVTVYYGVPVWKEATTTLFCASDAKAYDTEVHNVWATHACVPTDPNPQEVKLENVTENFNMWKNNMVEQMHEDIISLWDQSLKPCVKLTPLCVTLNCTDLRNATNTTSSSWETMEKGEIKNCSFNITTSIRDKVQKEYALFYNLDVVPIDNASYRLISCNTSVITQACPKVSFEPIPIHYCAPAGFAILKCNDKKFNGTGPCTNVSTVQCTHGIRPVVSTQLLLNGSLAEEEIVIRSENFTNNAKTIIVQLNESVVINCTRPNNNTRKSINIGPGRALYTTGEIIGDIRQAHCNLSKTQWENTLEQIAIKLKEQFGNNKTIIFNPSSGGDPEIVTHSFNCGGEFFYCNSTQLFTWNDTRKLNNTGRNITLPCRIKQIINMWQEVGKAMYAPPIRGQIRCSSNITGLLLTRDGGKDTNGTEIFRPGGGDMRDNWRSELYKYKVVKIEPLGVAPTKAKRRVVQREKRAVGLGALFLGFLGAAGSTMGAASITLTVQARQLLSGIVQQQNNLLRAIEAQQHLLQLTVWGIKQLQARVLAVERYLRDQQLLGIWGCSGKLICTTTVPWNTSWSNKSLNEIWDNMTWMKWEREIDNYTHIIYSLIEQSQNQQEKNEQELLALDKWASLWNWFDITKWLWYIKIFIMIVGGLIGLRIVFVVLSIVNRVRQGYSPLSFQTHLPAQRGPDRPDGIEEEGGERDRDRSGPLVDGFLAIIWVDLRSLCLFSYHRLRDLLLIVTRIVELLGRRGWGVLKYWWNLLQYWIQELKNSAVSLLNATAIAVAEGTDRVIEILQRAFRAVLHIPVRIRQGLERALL

| Binder | binding result |
| --- | --- |
| B1 | binds |
| B2 | binds |
| B3 | binds |
